US20220251241A1 (NGM BIOPHARMACEUTICALS, published 2022)

Columns and labels:
[1] = target: T1, HTRA1 (construct not given) (Homo sapiens (Human), UniProt Q92743 23-480, limits assumed); test: cell-based or functional assay
[2] = target: T1, HTRA1 (construct not stated in the …); test: SPR (Biacore), 25° C.; antibody captured; sample stored 4 weeks at pH 7.4, 40° C.
Method: (§1) The binding affinities of anti-HTRA1 antibodies to human HTRA1 were measured using a Biacore system (GE Healthcare Life Sciences). Briefly, anti-Fc antibody (Sigma-Aldrich) was immobilized on all four flow cells of a CMS chip using amine coupling reagents (GE Healthcare LifeSciences). Antibodies were captured on flow cells 2, 3, and 4 using flow cell 1 as a reference. […] Kinetic data were collected over time and fit using the simultaneous global fit equation to yield affinity constants (KD values) for each antibody. […]

[3] = target: T1, HTRA1 (construct not stated in the …); test: cell-based or functional assay; remark: listed apart in the source
[4] = target: T1, HTRA1 (construct not stated in the …); test: cell-based or functional assay; remark: listed apart in the source
[5] = target: T1, HTRA1 (construct not stated in the …); test: protease inhibition assay, H2-Opt peptide substrate; apparent Ki (Ki^app)
[6] = target: T2, HTRA1-catalytic domain (HTRA1-CAT; amino acids 156-364 of SEQ ID NO:1) (human, UniProt Q92743 156-364); test: SPR (Biacore), 37° C.; kon at the limit of detection
T2 construct: Wild-type catalytic domain construct; also called HTRA1 catalytic domain protein
Method: (§2) The binding affinities of anti-HTRA1 antibodies to human HTRA1 were measured using a Biacore system (GE Healthcare Life Sciences). Briefly, anti-Fc antibody (Sigma-Aldrich) was immobilized on all four flow cells of a CMS chip using amine coupling reagents (GE Healthcare LifeSciences). Antibodies were captured on flow cells 2, 3, and 4 using flow cell 1 as a reference. Concentrations ranging from 3.3-10 nM of human delta N-HTRA1 were injected at a flow rate of 50 μL/min at 37° C. Kinetic data were collected over time and fit using the simultaneous global fit equation to yield affinity constants (KD values) for each antibody.
(§3) The binding affinity of hz24F7.v2 to a HTRA1 full length protein (HTRA1-FL) or a HTRA1-CAT was determined using a Biacore system as described herein and compared with the binding affinity of the parental 24F7 antibody (see Table 9).

[7] = target: T1, HTRA1 (construct not stated in the …); test: SPR (Biacore); affinity at baseline
[8] = target: T1, HTRA1 (construct not stated in the …); test: SPR (Biacore), 25° C.; antibody captured; sample stored 2 weeks at pH 7.4, 40° C.
Method: as §1

[9] = target: T3, human HTRA1 full length protein (HTRA1-FL) (human, UniProt Q92743 23-480); test: SPR (Biacore), 37° C.
T3 construct: also called human HTRA1-FL
Method: as §2, §3

[10] = target: T2, HTRA1-catalytic domain (HTRA1-CAT; …); test: SPR (Biacore), 37° C.
Method: as §2, §3

[11] = target: T2, HTRA1-catalytic domain (HTRA1-CAT; …); test: SPR (Biacore), 25° C.; * = Limit of Detection; 25° C.; HTRA1-CAT; kon at limit of detection
[12] = target: T3, human HTRA1 full length protein …; test: SPR (Biacore), 25° C.
[13] = target: T2, HTRA1-catalytic domain (HTRA1-CAT; …); test: SPR (Biacore), 25° C.
[14] = target: T1, HTRA1 (construct not stated in the …); test: SPR (Biacore), 25° C.; antibody captured; sample stored 0 weeks at pH 7.4, 40° C.
Method: as §1

[15] = target: T2, HTRA1-catalytic domain (HTRA1-CAT; …); test: SPR (Biacore), 25° C.; kon at the limit of detection
[16] = target: T2, HTRA1-catalytic domain (HTRA1-CAT; …); test: SPR (Biacore), 37° C.; * = Limit of Detection
Method: as §2, §3

[17] = target: T1, HTRA1 (construct not stated in the …); test: cell-based or functional assay; remark: listed apart in the source
[18] = target: endogenous HTRA1 protein in the serum of the animals dosed with hz24F7.v2 (PK serum samples) (cynomolgus monkey); test: cell-based or functional assay
[19] = target: T1, HTRA1 (construct not stated in the …); test: protease inhibition assay, casein substrate; apparent Ki (Ki^app)
Text: Two enzymatic assays were used to characterize HTRA1 protease activity and evaluate inhibitory activity of anti-HTRA1 antibodies. EnzChek® Protease Assay Kit (ThermoFisher Scientific) was used following the manufacturer's instructions. This kit contains casein protein that is heavily labeled with the pH-insensitive green-fluorescent BOPIPY® FL dye that results in almost total quenching of the conjugate's fluorescence. Protease-catalyzed hydrolysis of labeled casein releases highly fluorescent BODIPY® FL dye-labeled peptides. The concomitant increase in fluorescence is proportional to protease activity.
To confirm that the humanized version of antibody 24F7 retained the ability to inhibit H IRA1 protease activity, hz24F7.v2 was assessed in casein and H2-Opt assays as described herein.

[20] = target: T1, HTRA1 (construct not stated in the …); test: SPR (Biacore), 25° C.; antibody captured; sample stored 8 weeks at pH 7.4, 40° C.
Method: as §1

T1 sequence (Q92743 23-480 limits assumed): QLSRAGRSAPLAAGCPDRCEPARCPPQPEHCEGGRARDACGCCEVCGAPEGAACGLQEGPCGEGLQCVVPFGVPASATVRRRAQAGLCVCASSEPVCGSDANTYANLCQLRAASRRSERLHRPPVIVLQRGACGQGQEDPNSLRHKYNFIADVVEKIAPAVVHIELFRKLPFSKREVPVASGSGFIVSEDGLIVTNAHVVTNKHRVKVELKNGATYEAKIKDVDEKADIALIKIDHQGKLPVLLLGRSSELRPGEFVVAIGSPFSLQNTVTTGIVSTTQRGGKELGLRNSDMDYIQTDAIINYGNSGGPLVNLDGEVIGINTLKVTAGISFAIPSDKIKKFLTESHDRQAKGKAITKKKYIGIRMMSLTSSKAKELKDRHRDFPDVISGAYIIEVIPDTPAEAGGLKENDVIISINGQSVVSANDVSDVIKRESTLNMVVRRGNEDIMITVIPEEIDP
T3 sequence (Q92743 23-480): as the sequence (Q92743 23-480 limits assumed) above
T2 sequence (Q92743 156-364): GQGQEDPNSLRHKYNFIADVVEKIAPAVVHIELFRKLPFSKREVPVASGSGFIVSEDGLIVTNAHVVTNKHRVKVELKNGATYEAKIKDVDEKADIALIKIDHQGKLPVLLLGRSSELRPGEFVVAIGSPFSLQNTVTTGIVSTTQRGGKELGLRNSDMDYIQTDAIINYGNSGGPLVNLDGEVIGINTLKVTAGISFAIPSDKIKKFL

B1: antibody hz24F7.v2 (antibody, human IgG1, kappa, N297G, V domains shown)
VH: QVQLVQSGAEVKKPGASVKVSCKASGYTFTDYEMHWVRQAPGQRLEWMGAIDPETGGTAYNQKFKGRVTITADKSASTAYMELSSLRSEDTAVYYCTREGYSYEGGGYYFDYWGQGTLVTVSS
VL: DIQMTQSPSSLSASVGDRVTITCSVSSSVSYMYWYQQKPGKAPKLLIYDTSNLASGVPSRFSGSGSGTDFTFTISSLQPEDIATYYCQQWSSYPTFGQGTKLEIKR
notes: also called humanized variant of 24F7
In the case of B1, the “IC50 (read off the curve), HTRA1 enzymatic assay, Hz24F7.v2 standard (dark squares)” value [1] is reported as ~100 pM, the Kd [2] is reported as 0.144 nM and the koff [2] is reported as 0.000388 s⁻¹. For the same binder, the kon [2] was 2.68e+06 M⁻¹ s⁻¹, the “IC50, enzyme assay; hz24F7.v2 reference in the S91Y column” value [3] was 64.5 pM and the “IC50, enzyme assay; hz24F7.v2 reference in the S92T column” value [3] was 64.5 pM. For the same binder, the IC50 at baseline [4] was 66 pM, the Ki [5] was 0.067 nM and the Kd [6] was < 0.1 nM. It also gave a Kd [7] of 0.0176 nM, a koff [7] of 0.000225 s⁻¹ and a kon [7] of 1.28e+07 M⁻¹ s⁻¹. The Kd [8] was 0.178 nM, the koff [8] was 0.000374 s⁻¹ and the kon [8] was 2.1e+06 M⁻¹ s⁻¹. It also gave a Kd [9] of 0.093 nM, a koff [9] of 0.00014 s⁻¹ and a kon [9] of 1.5e+06 M⁻¹ s⁻¹. For the same binder, the koff [10] was 0.00017 s⁻¹, the kon [11] was ≥ 3.9e+06 M⁻¹ s⁻¹ and the Kd [12] was 0.058 nM. For the same binder, the koff [12] was 4.2e-05 s⁻¹, the kon [12] was 710000 M⁻¹ s⁻¹ and the koff [13] was 5.6e-05 s⁻¹. For the same binder, the Kd [14] was 0.213 nM, the koff [14] was 0.000416 s⁻¹ and the kon [14] was 1.95e+06 M⁻¹ s⁻¹. The Kd [15] was < 0.1 nM, the kon [16] was 1.1e+07 M⁻¹ s⁻¹ and the “IC50, Casein Assay” value [17] was 0.29 nM. The “IC50, H2-Opt Assay” value [17] was 0.12 nM, the “amount of HTRA1 protein in PK serum samples after IV dosing of hz24F7.v2” value [18] was ~4 fold and the “amount of HTRA1 protein in PK serum samples after IVT dosing of hz24F7.v2” value [18] was ~2 fold. The Ki [19] was 0.086 nM, the Kd [20] was 0.167 nM and the koff [20] was 0.000502 s⁻¹. For the same binder, the kon [20] was 3.01e+06 M⁻¹ s⁻¹.
